The nature of this data set: label from the status in PepcDB records.
For “MSKTPRIRIPPEVRQYVFQRDKFQCQSCGKTGLETNLTIDHIIPLARGGQNDISNLHTLCFDCNRCKTDKLDSRFRRHFEI”, the protein production result is “failed”.
Next, “MSKVVGLSSKKSRWLLQSLRDQQRHSLGTGFESANILLSPKYHLKDKDLRKIHKAARVGDAARVQQLLLGKCGVNDKDKKKRWQGPRDGGCGGGGACVEESPHTTALHIACAYGHPKVVMALIEGRCEINATDSEECTSLVKAVQCQEEECATILLENGADPNIVDAQGNSALHYAVYYKNTSLAAKLLDHEVNIEATNKVEILHQRGVNQSTIVAKCVENPGLQSTGTIFCPHLTPLPEQGLTSSLKLTVVLNLAGGGGGEVSRGGRETETDTGGFTPLLLAVSENKLQIAKFLLMKNANIHAVDNQKRTALMHAVSHDSTHLVRFVLQQGVDLFLNDAFGLTAIDYAADFKYNTKVKQHQGLEKKSKSVSENLPLIRIGVDGLLQVNGQAVEEGRKQEWSEWGASESLQAAALDGGDLTSPLPRRRNKQAGKPGTQESPSVDSKEQDGGSDLNIKEENKKGYEEWSRDFVNELTSEKFGSVACDLLPVKDSWSLNGMDPNKGRPAKRKSKEKHKVEASLMMAEHGIDL”: “failed”; “MSLAADKVDILYLEDDEVDIQSVERVFHKISSLIKIEIAKSGNQALDMLYGRNKENKIHPKLILLDINIPKMNGIEFLKELRDDSSFTDIEVFVLTAAYTSKDKLAFESLNIRGHLIKPLDYGEAIKLFWILQSMEGHHHHHH”: “not failed”.
In the case of “MSLAEFRAQYLVRFWSPIPALLALGVASAYYFAITGTFWAVTGEFTRWGGHIAALLGFSPQQWSYFQLIGLNGSPLERIDGVMIIGMFAGALCAALWAGNVQLRWPTSRRRLAQGLIGGIIAGFGARLAMGCNLAAFFTGIPMFSLHAWAFMLTTVIGAWIGVKLCLLPFLRTPLRLDTAPSSLFADTASLARRARLQNRLGLLIAVLVLGFAAWRFETSLVLGLAVLFGVFFGAVIERGQICFTSAARDLWTTGRTRIAYGILLGMVVACLGTFGAIALGATPKIFWMGPNAALGGLLFGIGIVLAGGCETGWMYRAMEGQVHFWIVGIGNVIGGTLVAIFWDELGGTLALPYPKINLLEYLGAGTGLLLSLAGLMLAMLLVYLNARRFAVREGLAR” it was “failed”.
Turning to “MSLAEPRYKADIGGGSLKLPESRIIAGLLLEGVTEDQWRHAIEVENVLQRRSPGTAKRQSSLMRNRLETMGPELWQMVRDGSTQVAIQAVFAAAIKHSTLLGDFLDLVVRDQFRMFRPDLPRKMWDQYLEQCRNRDPLMPVWQDSTANKLADCVYRILVEVGYITDSKTYRLKSVRISGEVMSYLRENNEQYVIRCIQVSIEGHHHHHH”, the protein production entry was “not failed”.
Regarding “MSLAEVGSKSVLFVCLGNICRSPIAEAVFRKLVTDEKVSDNWAIDSSAVSDWNVGRPPDPRAVSCLRNHGISTAHKARQITKEDFATFDYILCMDESNLRDLNRKSNQVKNCKAKIELLGSYDPQKQLIIEDPYYGNDSDFEVVYQQCLRCCKAFLEKTYEGHHHHHH”, the protein production result is “not failed”.
For “MSLAHERSSGIYLVAASAVLWSTAGLFVRMADMDMWSMVAWRSAFTFLALGAFFLLRNRFARQRSSMSFGFPGIAGCLVSAIAAITYIASLRWTTVANVMTIYATLPFIVAGIAFVCLRDRVTYRFVIAGCLAFVGVLISVGAAVSHQDMLGIFAAFIMTTGCATQIVIAKRFPDMDTTLMTALAALICICVALPLMQFEIPAPTQIIACALYGVLTTAFGYIFLLQGSRRINAGEAGLISMLDVILGPVWVWLFYNEVISPIVLTGGGIVIMSVAWYLAGDRRAATAP”, the protein production entry is “failed”.
On to “MSLALYLGNKRMNDMYYTIGQVAKMQHLTISQIRYYDKQGLFPFLQRNEKGDRIFNEEALKYLEMILCLKNTGMPIQKIKQFIDWSMEGDSTILHRLKLMKQQEANVLQLIQDTEKNLKKIQQKIAKYEDEISSANATTKEGHHHHHH”, for which the protein production entry was “not failed”.
For “MSLARCERLRGAALRDVLGRAQGVLFDCDGVLWNGERAVPGAPELLERLARAGKAALFVSNNSRRARPELALRFARLGFGGLRAEQLFSSALCAARLLRQRLPGPPDAPGAVFVLGGEGLRAELRAAGLRLAGDPSAGDGAAPRVRAVLVGYDEHFSFAKLREACAHLRDPECLLVATDRDPWHPLSDGSRTPGTGSLAAAVETASGRQALVVGKPSPYMFECITENFSIDPARTLMVGDRLETDILFGHRCGMTTVLTLTGVSRLEEAQAYLAAGQHDLVPHYYVESIADLTEGLEDEGHHHHHH”, the protein production result is listed as “not failed”.
For “MSLARPLSFHEDRLFPSDPATRSYARGLYALVKDLPIISPHGHTDPSWFATNAPFQDATDLLLAPDHYLFRMLYSQGVSLDALKVRSKAGVPDTDPREAWRVFASHFYLFRGTPSWVWLNHVFSQVFGFTEFLEASNADDYFDRITAALATDAFRPRALFDRFNIETLATTEGPHESLQHHAAIRESGWGGHVITAYRPDAVIDFEDERSPRAFERFAETSGQDVYSWKSYLEAHRLRRQAFIDAGATSSDHGHPTAATADLSDVEAEALFNSLVKGDVTPEKAELFRAQMLTEMAKMSLDDGLVMQIHPGSHRNHNVGLLNSHGRDKGADIPMRTEYVDALKPLLTRLGNDPRLSIILFTLDETTYSRELAPLAGHYPVLKLGPSWWFHDSPEGMMRFREQVTETAGFYNTVGFNDDTRAFLSIPARHDVARRVDSAFLARMVAEHRMDLVEAEELIVDLTYNLPKKAYKLDQRPDWARPATLRAAAEEGHHHHHH”, the protein production result is “not failed”.
With “MSLARQVTAFNTGWQFKKGPFATDPMRAASQWDGKWETVEIPHTWNAMDMQVQSGSFYEGAGYYRKTQFFPHDLEGKRVFLRFEGVGACAEVYVNGKLAGTHKGGYSAFACEIGTALKLGAENEIIVKADNKARPDVIPVNQNLFGVYGGIYRPVWLIVTEQNNITVTDCASPGVYITQKDVSKKSADITVKVKLDNAGLQPAAVTLENTIYTQEGQKVGTHSRSFDLSPQGTQTYLSTFKLKNPHLWQGRKDPYLYKVVCRLMADGKVIDEVVQPLGVRKYEIVAGKGFFLNGEKYSMYGVTRHQDWWGLGSALKNEHHDFDLAAIMDVGATTVRFAHYQQSDYLYSRCDTLGLIIWAEIPCVNRVTGYETENAQSQLRELIRQSFNHPSIYVWGLHNEVYQPHEYTAALTRSLHDLAKTEDPDRYTVSVNGYGHMDHPVNLNADIQGMNRYFGWYEKKIQDIKPWVEQLEKDYPYQKLMLTEYGADANLAHQTEYLGDALNWGKPFYPETFQTKTHEYQWSIIKDHPYIIASYLWNMFDFAVPMWTRGGVPARNMKGLITFDRKTKKDSYFWYKANWSEEPVLYLTQRRNADREKRTTAVTVYSNIGTPKVYLNGQELSGIRNGYTDVHYVFDNVSLADGKNILKAVVSTKGKEYTDEIEWNYSGEKNREIDSYENKNEHSGEGHHHHHH”, the protein production entry is “not failed”.
As for “MSLDCRVRESIQEEAKGIVAPPELKEKVIVQIKMNQGGRKRKKRLIAGVLAAAFLIPTTGFAYQSIMADGIYGSFENLKKHAGTMTLEAYMRFSAKLSEAKDEMGTKEYEVFTKELKKLTNAKLAYGDSNGNIDYDALSSEKREEMKKVSMGLQPYFDKLNGHKSSKEVLTQEEFDRYMEALMTHEIVRVKTKSTGAIKVEEIPEAYKERFIKAEQFMEYVDEKVR”, the protein production result is “not failed”.
Turning to “MSLDLPEGHPLKTLYQENKEIMKDAEMLNLYAKTLATTKDERMREEILGVLEEIVSSLRMVGFTHYNREEMLIFPYIERRGLTVIATVLWTKHDEIRAMIKQLAELLRKREEMPWEEFVEKFKAKAGEVAFALSDMVFRENNIFYPTLKALLSEGEWKAIKMQEDEIGYYKVKPPEWDPGEDVKPLHPWEINPELNVEQLLTLPKEVQQALRGQPLEFDKTQLKREEDIDLGTGYLNIEELKAIFEALPVDVTFIDKDDRVRFFSPGERIFTRTPSVLGRPVQLCHPPKSVYVVNKILKAFKEGRKKEATFWLRLREKYVYIKYVPLFNEKGEYIGTLEMTMDIAPYKKIEGEKRLLDWRDEGHITITTDPNSSSVDKLAAALEHHHHHH”, the protein production result is “not failed”.
Take “MSLDSDVIVDRRRMRRKLTFWRVAAVLVAIVAVVAIGAMVSPAGRGALTSTGSIARIKIEGLIRSNDERVQALDRLGKSSYSAVIVHINSPGGTTAGSEELHDALARLKAKKPMVVVVEGLAASGGYIAALASEHIVAQQTSLVGSIGVLFQYPNVSELLKTVGVKVEEVKSSPLKAAPNGFEPTSPEARAAIEALVKDSYAWFRGMVQQSRKMTDDQLNVVADGRVFTGRQAVGLKLIDELGDERTAIAWLEKAKNVKAGLPVRDYKLAPQFGDLTFLRAAASVAFDAAGLGVIARRVEQTGAMQSVERLGLDGMLALWAPSAGQ”: the protein production entry is reported as “failed”.
Next, “MSLDYTYADDSLTLHTDMYQINMMQTYWELGRADLHAVFECYFREMPFNHGYAIFAGLERLVNYLENLTFTESDIAYLREVEEYPEDFLTYLANFEFKCTVRSALEGDLVFNNEPLIQIEGPLAQCQLVETALLNMVNFQTLIATKAARIKSVIGDDPLLEFGTRRAQELDAAIWGTRAAYIGGADATSNVRAGKIFGIPVSGTHAHSLVQSYGNDYEAFMAYAKTHRDCVFLVDTYDTLKAGVPSAIRVAREMGDKINFLGVRIDSGDMAYISKRVREQLDEAGFTEAKIYASNDLDENTILNLKMQKSKIDVWGVGTKLITAYDQPALGAVFKLVSIEGEDGQMKDTIKLSSNAEKVTTPGKKQVWRITRKSDKKSEGDYVTLWNEDPRQEEEIYMFHPVHTFINKYVRDFEARPVLQDIFVEGKRVYELPTLDEIKQYAKENLDSLWEEYKRDLNPQKYPVDLSTDCWNHKMNLLEKVRKDVKHLTETVNKEAEGHHHHHH”: “not failed”.
As for “MSLEAIRIGEINSYSQIPAFTLPYRNGWQLAVEQINAAGGLLGGRPLEVISRDDGGDPGKAVTAAQELLTRHGVHALAGTFLSHVGLAVSDFARQRKVLFMASEPLTDALTWEKGNRYTYRLRPSTYMQAAMLAAEAAKLPITRWATIAPNYEYGQSAVARFKELLLAARPEVTFVAEQWPALYKLDAGPTVQALQQAEPEGLFNVLFGADLPKFVREGRVRGLFAGRQVVSMLTGEPEYLNPLKDEAPEGWIVTGYPWYDIDTAPHRAFVEAYRARWKEDPFVGSLVGYNTLTAMAVAFEKAGGTESETLVETLKDMAFSTPMGPLSFRASDHQSTMGAWVGRTALRDGKGVMVDWRYVDGGSVLPPPEVVSAWRPAGEGHHHHHH”, the protein production entry is on record as “not failed”.
Next, “MSLEFFMAKADNPAFEQGQSPRMRLPDSVPLLIVGGGIMGLWAAVKAERLGIGTLLVEAGRLGGGASGGLLGALMPHMPDRWSDKKQFQFDALVALEAEIAGLEAETGLSGGYRRCGRIIPLPKPHLRGIAERHERDAAENWRSGERRFQWHVGERPSVAGWVDDAAGEAGFVFDTLAARVSPRALIALLSAFLRKARHVQVAEGCRVVSLDADAGRAALSSGEEISFGHVVVANGHESFPLIRDALGLEAGVALGQAVKGQAALLDASADPAMPVVFLNGLYIVPHEDGTVAIGSTSEDCFSEPFSTDEKLEKLLVDACTVVPSLAGAPVLERWAGLRPKAVGRDPMVGAMAGTAKLVALSGGFKVSFGLAHFLADAALETVCGHTPVIPSGFRLQEHVSIAVPDFRKFLEHHHHHH”: “failed”; “MSLEKQKGLAIITGASQGIGAVIAAGLATDGYRVVLIARSKQNLEKVHDEIMRSNKHVQEPIVLPLDITDCTKADTEIKDIHQKYGAVDILVNAAAMFMDGSLSEPVDNFRKIMEINVIAQYGILKTVTEIMKVQKNGYIFNVASRAAKYGFADGGIYGSTKFALLGLAESLYRELAPLGIRVTTLCPGWVNTDMAKKAGTPFKDEEMIQPDDLLNTIRCLLNLSENVCIKDIVFEMKKSIIEGHHHHHH”: “not failed”; “MSLEKWRIYEELTNAVREFESINPVRLIPEVGTNFVYSLPLPYARSTKDVAGVKGRIVKYGNSVKAVGPVEFGASDHLARAVLTYMRFYPEYRSAINIRYSREIIEEIIEIAQERGFKVSFYDRREEPEEIKAKEGATIPWGIETAIKRIKERPDIIYHLGDVGKEPMILVFGRNPREVLEKIKMLIEGHHHHHH”: “not failed”.

(Values after a protein production outcome set (Wang et al. 2014).)
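Note: failed if final PepcDB status was selected cloned or expressed and not failed if soluble or beyond.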
